Drawing on article PMC5429858, this text covers binding signal (% reduction of binding) for 1 substance.

This data set relates to EZH2 (recombinant PRC2 complex). The data set can be described thus: pull-down (streptavidin) + western. Conditions: Folding buffer 100 mM KCl, 50 mM Tris-HCl, 5 mM MgCl2, 0.1 mM CaCl2, 0.5 mM ZnCl2 with BSA and RNase inhibitor (pH not given); PNA 30 min 37 C (legend: 1 h …).

HOTAIR full-length lncRNA: the binding signal (% reduction of binding) was found to be 80.
